This passage reports Kd results from patent US20250066503A1, “CELL INJURY INDUCING THERAPEUTIC DRUG FOR USE IN CANCER THERAPY” (CHUGAI SEIYAKU KABUSHIKI KAISHA, priority 2016, published 2025).

Positions count from the first letter of the chain named.

One may read the Kd as a measure of binding affinity in units of concentration. Lower therefore signals a tighter complex.

This experiment has as its target T1, human GPC3 (human, UniProt P51654 25-563).
T1 construct: range 25-563; soluble analyte; also called soluble human GPC3; glypican 3
Put plainly: SPR.

T1 sequence (P51654 25-563 limits assumed): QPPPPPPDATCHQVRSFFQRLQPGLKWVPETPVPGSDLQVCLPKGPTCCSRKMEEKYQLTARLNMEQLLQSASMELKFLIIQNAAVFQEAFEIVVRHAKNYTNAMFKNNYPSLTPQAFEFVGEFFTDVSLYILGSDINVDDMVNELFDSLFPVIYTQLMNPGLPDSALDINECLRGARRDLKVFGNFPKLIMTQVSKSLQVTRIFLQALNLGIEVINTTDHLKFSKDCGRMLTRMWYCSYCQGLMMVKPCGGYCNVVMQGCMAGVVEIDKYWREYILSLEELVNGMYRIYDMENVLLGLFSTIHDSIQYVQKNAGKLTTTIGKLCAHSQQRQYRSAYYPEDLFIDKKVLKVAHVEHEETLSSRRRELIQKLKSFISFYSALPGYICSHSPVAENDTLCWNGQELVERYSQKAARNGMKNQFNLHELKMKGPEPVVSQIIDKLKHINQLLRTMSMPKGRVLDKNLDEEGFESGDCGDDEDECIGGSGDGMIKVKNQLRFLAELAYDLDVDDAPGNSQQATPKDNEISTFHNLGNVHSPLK

B1: H0610-G1dh/none-Hi-Kn010G3/L0062-k0 (antibody, V domains shown)
VH: QVQLVQSGAEVKKPGASVKVSCKASGYTFTDYEMHWIRQPPGQGLEWIGAIDGKTPDTAYSQKFKGRVTLTADKSTSTAYMELSSLTSEDTAVYYCTRFYSYTYWGQGTLVTVSS
VL: DIVMTQSPLSLPVTPGEPASISCRSSQSLVHSNRDTYLHWYQQKPGQAPRLLIYKVSNRFSGVPDRFSGSGSGTDFTLKISRVEAEDVGVYYCGQGTQVPYTFGQGTKLEIK
notes: one-arm
B1: the Kd turned out to be 5.28 nM. This lies in the single-digit nanomolar range.

B2: H0610-G1dh/none-Hi-Kn010G3/L0066-k0 (antibody, V domains shown)
VH: B1 VH
VL: B1 VL with D35H
notes: one-arm
As for B2, binding was characterised by a dissociation constant (Kd) of 4.2 nM.

B3: H0610-G1dh/none-Hi-Kn010G3/L0123-k0 (antibody, V domains shown)
VH: B1 VH
VL: B1 VL with D35N, F60K
notes: one-arm
B3 yielded a Kd of 5.08 nM. The Kd values of the last two molecules are within 1.5-fold of each other.

B4: H0610-G1dh/none-Hi-Kn010G3/L0139-k0 (antibody, V domains shown)
VH: B1 VH
VL: B1 VL with D35N, S61I
notes: one-arm
For the molecule B4, binding was characterised by a dissociation constant (Kd) of 4.78 nM. This Kd and that of the molecule before are within 1.5-fold of each other.

B5: H0610-G1dh/none-Hi-Kn010G3/L0144-k0 (antibody, V domains shown)
VH: B1 VH
VL: B1 VL with D35N, S61Q
notes: one-arm
B5 had a dissociation constant (Kd) of 4.84 nM. This Kd and that of the molecule before are within 1.5-fold of each other.

B6: H0610-G1dh/none-Hi-Kn010G3/L0132-k0 (antibody, V domains shown)
VH: B1 VH
VL: B1 VL with D35N, F60V
notes: one-arm
On to B6, for which binding was put at a Kd of 5.65 nM.

B7: H0610-G1dh/none-Hi-Kn010G3/L0065-k0 (antibody, V domains shown)
VH: B1 VH
VL: B1 VL with D35G
notes: one-arm
B7: the Kd worked out at 4.79 nM.

B8: H0610-G1dh/none-Hi-Kn010G3/L0147-k0 (antibody, V domains shown)
VH: B1 VH
VL: B1 VL with D35N, S61V
notes: one-arm
As to B8, the Kd came out at 4.38 nM.

B9: H0610-G1dh/none-Hi-Kn010G3/L0140-k0 (antibody, V domains shown)
VH: B1 VH
VL: B1 VL with D35N, S61L
notes: one-arm
In turn, B9 returned a Kd of 3.38 nM.

B10: H0610-G1dh/none-Hi-Kn010G3/L0069-k0 (antibody, V domains shown)
VH: B1 VH
VL: B1 VL with D35M
notes: one-arm
B10 gave a Kd of 5.32 nM.

B11: H0610-G1dh/none-Hi-Kn010G3/L0129-k0 (antibody, V domains shown)
VH: B1 VH
VL: B1 VL with D35N, F60R
notes: one-arm
B11 returned a Kd of 5.28 nM. The Kd values of the last two molecules are within 1.5-fold of each other.

B12: H0610-G1dh/none-Hi-Kn010G3/L0149-k0 (antibody, V domains shown)
VH: B1 VH
VL: B1 VL with D35N, G94A
notes: one-arm
Take B12: binding was put at a Kd of 2.16 nM.

B13: H0610-G1dh/none-Hi-Kn010G3/L0085-k0 (antibody, V domains shown)
VH: B1 VH
VL: B1 VL with D35N, H39E
notes: one-arm
As for B13, the affinity, expressed as Kd, was 1.17 nM.

B14: H0610-G1dh/none-Hi-Kn010G3/L0093-k0 (antibody, V domains shown)
VH: B1 VH
VL: B1 VL with D35N, H39Q
notes: one-arm
For B14, the Kd was 0.106 nM.

B15: H0610-G1dh/none-Hi-Kn010G3/L0079-k0 (antibody, V domains shown)
VH: B1 VH
VL: B1 VL with D35N, L38I
notes: one-arm
Regarding B15, the affinity, expressed as Kd, was 4.23 nM.

B16: H0610-G1dh/none-Hi-Kn010G3/L0113-k0 (antibody, V domains shown)
VH: B1 VH
VL: B1 VL with D35N, N58T
notes: one-arm
Molecule B16 yielded an equilibrium dissociation constant (Kd) of 4.82 nM.

B17: H0610-G1dh/none-Hi-Kn010G3/L0090-k0 (antibody, V domains shown)
VH: B1 VH
VL: B1 VL with D35N, H39M
notes: one-arm
B17 displayed a Kd of 1.12 nM.

B18: H0610-G1dh/none-Hi-Kn010G3/L0122-k0 (antibody, V domains shown)
VH: B1 VH
VL: B1 VL with D35N, F60I
notes: one-arm
In turn, B18 had a Kd of 2.42 nM. Against the preceding molecule, the Kd is about 2.2-fold higher.

B19: H0610-G1dh/none-Hi-Kn010G3/L0141-k0 (antibody, V domains shown)
VH: B1 VH
VL: B1 VL with D35N, S61M
notes: one-arm
In turn, B19 showed a Kd of 3.86 nM.

B20: H0610-G1dh/none-Hi-Kn010G3/L0107-k0 (antibody, V domains shown)
VH: B1 VH
VL: B1 VL with D35N, N58I
notes: one-arm
B20 had an equilibrium dissociation constant (Kd) of 4.38 nM.

B21: H0610-G1dh/none-Hi-Kn010G3/L0125-k0 (antibody, V domains shown)
VH: B1 VH
VL: B1 VL with D35N, F60M
notes: one-arm
Turning to B21, the Kd was found to be 1.71 nM.

B22: H0610-G1dh/none-Hi-Kn010G3/L0127-k0 (antibody, V domains shown)
VH: B1 VH
VL: B1 VL with D35N, F60P
notes: one-arm
In turn, B22 had a Kd of 3.12 nM.

B23: H0610-G1dh/none-Hi-Kn010G3/L0091-k0 (antibody, V domains shown)
VH: B1 VH
VL: B1 VL with D35N, H39N
notes: one-arm
B23 had an equilibrium dissociation constant (Kd) of 5.43 nM.

B24: H0610-G1dh/none-Hi-Kn010G3/L0136-k0 (antibody, V domains shown)
VH: B1 VH
VL: B1 VL with D35N, S61F
notes: one-arm
For B24, binding was characterised by a dissociation constant (Kd) of 5.04 nM.

B25: H0610-G1dh/none-Hi-Kn010G3/L0126-k0 (antibody, V domains shown)
VH: B1 VH
VL: B1 VL with D35N, F60N
notes: one-arm
Consider B25, for which the Kd stood at 5.62 nM.

B26: H0610-G1dh/none-Hi-Kn010G3/L0148-k0 (antibody, V domains shown)
VH: B1 VH
VL: B1 VL with D35N, S61W
notes: one-arm
As for B26, binding was put at a Kd of 3.28 nM. Compared with the last molecule, the Kd is about 1.7-fold lower.

B27: H0610-G1dh/none-Hi-Kn010G3/L0137-k0 (antibody, V domains shown)
VH: B1 VH
VL: B1 VL with D35N, S61G
notes: one-arm
Turning to B27, binding was put at a Kd of 5.87 nM. Compared with the last molecule, the Kd is about 1.8-fold higher.

B28: H0610-G1dh/none-Hi-Kn010G3/L0117-k0 (antibody, V domains shown)
VH: B1 VH
VL: B1 VL with D35N, F60A
notes: one-arm
In turn, B28 displayed a Kd of 4.92 nM.

B29: H0610-G1dh/none-Hi-Kn010G3/L0152-k0 (antibody, V domains shown)
VH: B1 VH
VL: B1 VL with D35N, G94F
notes: one-arm
B29 registered a Kd of 2.36 nM.

B30: H0610-G1dh/none-Hi-Kn010G3/L0082-k0 (antibody, V domains shown)
VH: B1 VH
VL: B1 VL with D35N, L38V
notes: one-arm
B30 displayed a Kd of 3.43 nM. The Kd values of the last two molecules are within 1.5-fold of each other.

B31: H0610-G1dh/none-Hi-Kn010G3/L0075-k0 (antibody, V domains shown)
VH: B1 VH
VL: B1 VL with D35W
notes: one-arm
B31 yielded a dissociation constant Kd of 2.85 nM.

B32: H0610-G1dh/none-Hi-Kn010G3/L0064-k0 (antibody, V domains shown)
VH: B1 VH
VL: B1 VL with D35F
notes: one-arm
With B32, the Kd worked out at 3.37 nM.

B33: H0610-G1dh/none-Hi-Kn010G3/L0120-k0 (antibody, V domains shown)
VH: B1 VH
VL: B1 VL with D35N, F60G
notes: one-arm
On to B33, for which the Kd was 4.54 nM.

B34: H0610-G1dh/none-Hi-Kn010G3/L0115-k0 (antibody, V domains shown)
VH: B1 VH
VL: B1 VL with D35N, N58W
notes: one-arm
B34 showed a dissociation constant Kd of 4.34 nM.

B35: H0610-G1dh/none-Hi-Kn010G3/L0109-k0 (antibody, V domains shown)
VH: B1 VH
VL: B1 VL with D35N, N58M
notes: one-arm
On to B35, for which binding was put at a Kd of 5.7 nM.

B36: H0610-G1dh/none-Hi-Kn010G3/L0151-k0 (antibody, V domains shown)
VH: B1 VH
VL: B1 VL with D35N, G94E
notes: one-arm
B36: the equilibrium dissociation constant (Kd) stood at 1.25 nM.

B37: H0610-G1dh/none-Hi-Kn010G3/L0134-k0 (antibody, V domains shown)
VH: B1 VH
VL: B1 VL with D35N, F60Y
notes: one-arm
B37 gave a Kd of 2.53 nM.

B38: H0610-G1dh/none-Hi-Kn010G3/L0089-k0 (antibody, V domains shown)
VH: B1 VH
VL: B1 VL with D35N, H39L
notes: one-arm
Molecule B38 displayed a Kd of 5.24 nM.

B39: H0610-G1dh/none-Hi-Kn010G3/L0138-k0 (antibody, V domains shown)
VH: B1 VH
VL: B1 VL with D35N, S61H
notes: one-arm
For the molecule B39, binding was put at a Kd of 5.24 nM.

B40: H0610-G1dh/none-Hi-Kn010G3/L0104-k0 (antibody, V domains shown)
VH: B1 VH
VL: B1 VL with D35N, N58F
notes: one-arm
On to B40, for which binding was characterised by a dissociation constant (Kd) of 5.9 nM.

B41: H0610-G1dh/none-Hi-Kn010G3/L0106-k0 (antibody, V domains shown)
VH: B1 VH
VL: B1 VL with D35N, N58H
notes: one-arm
B41 showed a Kd of 5.66 nM.

B42: H0610-G1dh/none-Hi-Kn010G3/L0124-k0 (antibody, V domains shown)
VH: B1 VH
VL: B1 VL with D35N, F60L
notes: one-arm
Consider B42, for which the Kd was determined as 0.972 nM.

B43: H0610-G1dh/none-Hi-Kn010G3/L0154-k0 (antibody, V domains shown)
VH: B1 VH
VL: B1 VL with D35N, G94I
notes: one-arm
Molecule B43 showed a Kd of 1.01 nM.

B44: H0610-G1dh/none-Hi-Kn010G3/L0063-k0 (antibody, V domains shown)
VH: B1 VH
VL: B1 VL with D35E
notes: one-arm
Molecule B44 returned a Kd of 6.03 nM.

B45: H0610-G1dh/none-Hi-Kn010G3/L0143-k0 (antibody, V domains shown)
VH: B1 VH
VL: B1 VL with D35N, S61P
notes: one-arm
On to B45, for which the Kd amounted to 0.573 nM.

B46: H0610-G1dh/none-Hi-Kn010G3/L0145-k0 (antibody, V domains shown)
VH: B1 VH
VL: B1 VL with D35N, S61R
notes: one-arm
Take B46: the Kd is 2.66 nM.
